Data set [1] concerns the target recombinant PARP1, non-PARsylated, P09874.
Data set [2] concerns the target PARsylated PARP1 (recombinant PARP1 automodified in vitro), P09874.
Data set [3] has as its target PARsylated PARP1, endogenous protein of MCF7 cells, P09874.
Data set [4] deals with T1, PARIS (parkin interacting substrate) (human, UniProt Q6NUN9 1-644, limits assumed).
T1 construct: Negative control of the co-immunoprecipitation
In words: immunoprecipitation of endogenous Iduna from MCF7 lysate, immunoblot. (In general: Immunoblotting shows a protein as a band on a membrane.)

T1 sequence (Q6NUN9 whole entry): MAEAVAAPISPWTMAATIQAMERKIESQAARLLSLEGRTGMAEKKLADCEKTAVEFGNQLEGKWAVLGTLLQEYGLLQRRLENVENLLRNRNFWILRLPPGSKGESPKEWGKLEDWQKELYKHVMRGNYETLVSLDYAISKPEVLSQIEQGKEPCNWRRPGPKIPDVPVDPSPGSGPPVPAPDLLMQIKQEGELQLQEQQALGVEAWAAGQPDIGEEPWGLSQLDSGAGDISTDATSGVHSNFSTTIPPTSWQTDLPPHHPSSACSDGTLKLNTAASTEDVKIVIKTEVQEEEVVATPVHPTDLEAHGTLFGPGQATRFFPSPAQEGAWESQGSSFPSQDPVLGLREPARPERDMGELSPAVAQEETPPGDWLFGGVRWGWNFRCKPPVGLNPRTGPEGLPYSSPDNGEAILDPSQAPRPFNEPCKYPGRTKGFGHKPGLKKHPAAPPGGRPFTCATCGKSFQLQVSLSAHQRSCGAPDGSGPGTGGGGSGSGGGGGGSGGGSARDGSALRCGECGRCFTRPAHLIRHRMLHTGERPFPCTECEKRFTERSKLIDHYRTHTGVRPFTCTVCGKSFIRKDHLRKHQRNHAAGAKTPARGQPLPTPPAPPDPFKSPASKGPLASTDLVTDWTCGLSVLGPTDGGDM
Sequence of recombinant PARP1, non-PARsylated, P09874 (P09874 whole entry, looked up): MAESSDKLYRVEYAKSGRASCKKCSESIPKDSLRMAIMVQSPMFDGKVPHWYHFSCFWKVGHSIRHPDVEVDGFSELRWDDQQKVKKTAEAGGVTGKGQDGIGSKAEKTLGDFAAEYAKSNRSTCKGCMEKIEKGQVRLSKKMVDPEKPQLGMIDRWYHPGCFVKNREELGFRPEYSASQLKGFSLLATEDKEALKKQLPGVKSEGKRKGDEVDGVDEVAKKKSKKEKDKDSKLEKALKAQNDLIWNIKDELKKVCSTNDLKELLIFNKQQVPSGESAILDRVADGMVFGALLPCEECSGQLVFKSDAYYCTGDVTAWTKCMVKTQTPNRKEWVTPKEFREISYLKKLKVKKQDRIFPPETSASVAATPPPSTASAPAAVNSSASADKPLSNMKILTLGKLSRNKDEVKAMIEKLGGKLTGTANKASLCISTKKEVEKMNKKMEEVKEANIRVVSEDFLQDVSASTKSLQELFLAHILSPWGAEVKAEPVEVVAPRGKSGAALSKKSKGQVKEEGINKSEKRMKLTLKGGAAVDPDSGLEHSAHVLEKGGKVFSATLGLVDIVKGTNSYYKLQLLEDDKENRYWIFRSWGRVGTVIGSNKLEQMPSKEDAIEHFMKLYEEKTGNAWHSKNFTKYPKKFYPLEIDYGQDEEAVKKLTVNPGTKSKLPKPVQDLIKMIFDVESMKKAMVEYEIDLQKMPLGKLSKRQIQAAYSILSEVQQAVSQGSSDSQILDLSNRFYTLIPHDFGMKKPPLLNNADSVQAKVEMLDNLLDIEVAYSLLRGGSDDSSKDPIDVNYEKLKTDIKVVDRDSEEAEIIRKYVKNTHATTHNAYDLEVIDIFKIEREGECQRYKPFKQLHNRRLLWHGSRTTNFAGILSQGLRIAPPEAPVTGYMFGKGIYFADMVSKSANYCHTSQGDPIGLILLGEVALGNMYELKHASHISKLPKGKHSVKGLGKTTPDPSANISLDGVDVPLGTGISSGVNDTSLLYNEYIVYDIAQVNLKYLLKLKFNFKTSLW
Sequence of PARsylated PARP1, endogenous protein of MCF7 cells, P09874 (P09874 whole entry, looked up): as above
Sequence of PARsylated PARP1 (recombinant PARP1 automodified in vitro), P09874 (P09874 whole entry, looked up): as above

B1: GST-Iduna (protein)
chain: MEMAGCGEIDHSINMLPTNKKANESCSNTAPSLTVPECAICLQTCVHPVSLPCKHVFCYLCVKGASWLGKRCALCRQEIPEDFLDKPTLLSPEELKAASRGNGEYAWYYEGRNGWWQYDERTSRELEDAFSKGKKNTEMLIAGFLYVADLENMVQYRRNEHGRRRKIKRDIIDIPKKGVAGLRLDCDTNTVNLARESSADGADSGSAQTGASVQLAVPSSTRPLTSVDGQLTSPVTPSPDAGISLEDSFAHLQLSGDSIAERSHRGEGEEDHESPSSGRVPDTSVEETESDASSDSEDAPVVVAQHSLTQQRPLVPNGNQTVADQSDRSGTDRSVAGGGTMSVNVRSRRPDGQCTVIEV
Regarding B1, the entries for the “in vitro ubiquitination assay (E1, UBCH 5c, ubiquitin), immunoblot with antibodies to ubiquitin” value in data set [1] and in data set [2] were “Only PARsylated PARP1 is ubiquitinated by GST-Iduna (non-PARsylated PARP1 is not ubiquitinated)” and “Only PARsylated PARP1 is ubiquitinated by GST-Iduna”, respectively.

B2: GFP-Iduna (EGFP-tagged Iduna) (protein)
chain: B1 chain
In the case of B2, the “in vitro ubiquitination assay on anti-GFP immunoprecipitates, immunoblot with antibodies to PAR and ubiquitin” value in data set [3] is listed as “only GFP-Iduna is capable of polyubiquitination of PARsylated PARP1”.

B3: human Iduna (RNF146) (enzyme)
chain: MAGCGEIDHSINMLPTNKKANESCSNTAPSLTVPECAICLQTCVHPVSLPCKHVFCYLCVKGASWLGKRCALCRQEIPEDFLDKPTLLSPEELKAASRENGEYAWYYEGRNGWWQYDERTSRELEDAFSKGKKNTEMLIAGFLYVADLENMVQYRRNEHGRRRKVKRDIIDIPKKGVAGLRLDCDANTVNLARESSADGADSVSAQSGASVQPLVSSVRPLTSVDGQLTSPATPSPDASTSLEDSFAHLQLSGDNTAERSHRGEGEEDHESPSSGRVPAPDTSIEETESDASSDSEDVSAVVAQHSLTQQRLLVSNANQTVPDRSDRSGTDRSVAGGGTVSVSVRSRRPDGQCTVIEV
notes: also called hIduna; endogenous Iduna (MCF7 cells)
For B3, the binding result in data set [4] was “no binding”.

These data come from patent US20120121559A1 (VALTED, published 2012).
